Biological target: Cu,Zn superoxide dismutase (SOD1) from Chionodraco hamatus (Chionodraco hamatus)
Assay: SEC; gel exclusion chromatography on a Sephadex G-75 column against standards (bovine serum albumin, ovalbumin, chymotrypsinogen A, cytochrome c); native mass compared with the monomer mass from SDS-PAGE with 2-mercaptoethanol and MALDI-TOF

stoichiometry N: 2
Substance: Cu,Zn superoxide dismutase (SOD1) from Chionodraco hamatus (enzyme)

— article PMC7222407
